Data on four molecules can be found in paper PMC11055865, “Mechanism of DNA unwinding by MCM8-9 in complex with HROB”.

The target of one series is MCM8 R309D;MBP-MCM9 (human;human, UniProt Q9UJA3;Q9NXL9 1-840;1-1143, R309D|). Briefly: mass photometry; 1 mM ATP, 2 mM Mg acetate; heterodimer bound plus likely hexamer (Peak 4); EMSA: 25 mM Tris-acetate pH 7.5, 3 mM EDTA (or 4 mM ATP/ATPgS + 1 mM Mg acetate), 1 mM DTT, 0.1 mg/ml BSA, 1 nM DNA (100 ng for M13), 15 min on ice, gels at 4 C; mass photometry: 25 mM HEPES-NaOH pH 7.5, 2 mM Mg acetate, 1 mM ATP, room temperature. The following applies: protein: recombinant;recombinant; tags: N-terminal FLAG;N-terminal MBP (not cleaved); chain copies: 3;3; single strand. Background: A gel shift assay detects complexes by their altered migration in electrophoresis.
Sequence of MCM8 R309D;MBP-MCM9 (Q9UJA3 whole entry R309D, chain 1 of 2): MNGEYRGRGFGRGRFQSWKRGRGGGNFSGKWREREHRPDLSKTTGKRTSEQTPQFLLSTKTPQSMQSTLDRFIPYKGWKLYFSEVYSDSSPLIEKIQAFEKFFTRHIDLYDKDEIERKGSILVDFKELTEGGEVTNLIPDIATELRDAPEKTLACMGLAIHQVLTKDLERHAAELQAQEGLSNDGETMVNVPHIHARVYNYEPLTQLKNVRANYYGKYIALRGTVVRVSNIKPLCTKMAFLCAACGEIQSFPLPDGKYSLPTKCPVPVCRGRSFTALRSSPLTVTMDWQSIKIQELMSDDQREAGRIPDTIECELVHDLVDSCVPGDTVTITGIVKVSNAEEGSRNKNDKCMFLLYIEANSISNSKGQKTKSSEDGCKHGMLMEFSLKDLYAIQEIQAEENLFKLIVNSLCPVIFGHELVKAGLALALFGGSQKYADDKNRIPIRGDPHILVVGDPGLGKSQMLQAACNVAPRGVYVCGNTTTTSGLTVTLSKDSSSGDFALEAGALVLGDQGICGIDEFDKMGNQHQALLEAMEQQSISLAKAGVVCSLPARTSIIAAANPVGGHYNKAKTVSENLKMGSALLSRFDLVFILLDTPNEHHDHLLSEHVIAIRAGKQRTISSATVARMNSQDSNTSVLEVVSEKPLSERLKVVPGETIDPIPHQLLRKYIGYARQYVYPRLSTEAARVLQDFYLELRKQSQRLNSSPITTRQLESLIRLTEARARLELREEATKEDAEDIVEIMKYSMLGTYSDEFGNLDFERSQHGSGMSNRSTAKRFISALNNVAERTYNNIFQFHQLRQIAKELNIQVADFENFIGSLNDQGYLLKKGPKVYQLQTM
Sequence of MCM8 R309D;MBP-MCM9 (Q9NXL9 whole entry, chain 2 of 2): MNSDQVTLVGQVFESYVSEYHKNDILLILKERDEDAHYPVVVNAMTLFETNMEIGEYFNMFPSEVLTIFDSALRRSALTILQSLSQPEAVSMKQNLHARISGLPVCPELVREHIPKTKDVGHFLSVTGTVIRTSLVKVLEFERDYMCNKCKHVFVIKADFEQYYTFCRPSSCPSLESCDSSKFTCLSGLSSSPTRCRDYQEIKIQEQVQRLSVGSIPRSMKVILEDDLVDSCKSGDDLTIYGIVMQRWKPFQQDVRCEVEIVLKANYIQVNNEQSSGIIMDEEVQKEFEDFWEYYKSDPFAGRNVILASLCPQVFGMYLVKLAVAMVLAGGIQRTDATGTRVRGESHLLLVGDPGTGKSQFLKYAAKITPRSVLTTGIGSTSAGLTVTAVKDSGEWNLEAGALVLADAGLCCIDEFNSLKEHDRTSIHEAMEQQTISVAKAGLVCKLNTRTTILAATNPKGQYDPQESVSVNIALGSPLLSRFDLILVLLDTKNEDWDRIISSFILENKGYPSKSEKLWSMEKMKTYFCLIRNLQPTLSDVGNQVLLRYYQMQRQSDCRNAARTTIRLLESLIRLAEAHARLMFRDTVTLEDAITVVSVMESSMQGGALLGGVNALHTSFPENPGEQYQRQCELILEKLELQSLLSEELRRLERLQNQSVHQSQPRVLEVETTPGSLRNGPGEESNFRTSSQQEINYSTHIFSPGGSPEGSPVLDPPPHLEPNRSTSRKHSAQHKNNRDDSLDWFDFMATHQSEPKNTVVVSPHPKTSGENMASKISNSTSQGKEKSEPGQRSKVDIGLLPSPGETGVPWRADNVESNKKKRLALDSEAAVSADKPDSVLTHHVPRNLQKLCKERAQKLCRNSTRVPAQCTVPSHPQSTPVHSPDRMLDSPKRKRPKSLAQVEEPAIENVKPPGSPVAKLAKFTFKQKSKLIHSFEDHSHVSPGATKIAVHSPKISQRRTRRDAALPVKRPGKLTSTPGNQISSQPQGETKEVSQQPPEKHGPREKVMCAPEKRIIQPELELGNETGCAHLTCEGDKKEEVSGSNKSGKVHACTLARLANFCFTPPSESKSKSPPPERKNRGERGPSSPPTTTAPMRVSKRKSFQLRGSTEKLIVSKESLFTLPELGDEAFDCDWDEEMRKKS

Series [1] has as its target T1, HROB-FLAG (human, UniProt Q8N3J3-4 1-646, T126P).
T1 sequence: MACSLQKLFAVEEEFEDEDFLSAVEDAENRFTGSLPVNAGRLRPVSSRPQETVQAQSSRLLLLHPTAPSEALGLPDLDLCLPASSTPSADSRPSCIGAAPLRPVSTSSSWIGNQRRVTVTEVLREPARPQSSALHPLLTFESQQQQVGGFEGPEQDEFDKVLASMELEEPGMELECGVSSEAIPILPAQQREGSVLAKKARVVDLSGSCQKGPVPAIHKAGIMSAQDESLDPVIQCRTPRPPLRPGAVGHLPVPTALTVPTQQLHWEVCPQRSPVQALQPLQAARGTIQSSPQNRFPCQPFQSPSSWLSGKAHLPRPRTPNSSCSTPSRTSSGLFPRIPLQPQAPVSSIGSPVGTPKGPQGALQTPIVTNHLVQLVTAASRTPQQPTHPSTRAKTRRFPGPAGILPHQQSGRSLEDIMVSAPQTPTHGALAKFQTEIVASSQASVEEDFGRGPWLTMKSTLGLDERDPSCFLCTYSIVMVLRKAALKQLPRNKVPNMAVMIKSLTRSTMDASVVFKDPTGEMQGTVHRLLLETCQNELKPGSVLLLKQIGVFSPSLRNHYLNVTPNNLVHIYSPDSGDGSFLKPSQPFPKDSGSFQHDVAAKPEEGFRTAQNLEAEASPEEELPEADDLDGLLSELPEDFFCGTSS
Briefly: EMSA; 3 mM EDTA; EMSA: 25 mM Tris-acetate pH 7.5, 3 mM EDTA (or 4 mM ATP/ATPgS + 1 mM Mg acetate), 1 mM DTT, 0.1 mg/ml BSA, 1 nM DNA (100 ng for M13), 15 min on ice, gels at 4 C; mass photometry: 25 mM HEPES-NaOH pH 7.5, 2 mM Mg acetate, 1 mM ATP, room temperature. The settings on record: protein: recombinant; tags: C-terminal FLAG; label: 3' 32P-dC (terminal transferase); single strand.

The next series concerns the target T2, HROB-ΔOB (human, UniProt Q8N3J3-4 1-490+575-646, T126P;internal_change).
T2 sequence: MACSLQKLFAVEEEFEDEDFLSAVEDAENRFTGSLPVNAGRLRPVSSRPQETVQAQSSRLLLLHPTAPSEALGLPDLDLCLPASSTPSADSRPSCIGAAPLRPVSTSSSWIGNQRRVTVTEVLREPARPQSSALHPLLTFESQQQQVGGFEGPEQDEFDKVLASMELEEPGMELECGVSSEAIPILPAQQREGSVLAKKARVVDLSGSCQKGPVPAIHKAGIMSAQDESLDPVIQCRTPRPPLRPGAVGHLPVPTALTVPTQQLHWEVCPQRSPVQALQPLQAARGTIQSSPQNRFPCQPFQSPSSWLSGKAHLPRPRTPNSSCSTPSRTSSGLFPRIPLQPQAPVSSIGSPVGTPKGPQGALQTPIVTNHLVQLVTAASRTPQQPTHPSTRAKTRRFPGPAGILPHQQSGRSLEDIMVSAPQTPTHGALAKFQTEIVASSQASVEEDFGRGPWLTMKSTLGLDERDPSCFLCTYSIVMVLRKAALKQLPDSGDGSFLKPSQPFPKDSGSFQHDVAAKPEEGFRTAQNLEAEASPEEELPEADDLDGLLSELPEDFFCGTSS
Briefly: EMSA; 3 mM EDTA; comparable to WT HROB; EMSA: 25 mM Tris-acetate pH 7.5, 3 mM EDTA (or 4 mM ATP/ATPgS + 1 mM Mg acetate), 1 mM DTT, 0.1 mg/ml BSA, 1 nM DNA (100 ng for M13), 15 min on ice, gels at 4 C; mass photometry: 25 mM HEPES-NaOH pH 7.5, 2 mM Mg acetate, 1 mM ATP, room temperature. The settings on record: protein: recombinant; tags: FLAG; label: 3' 32P-dC (terminal transferase); single strand.

In series [2] the target is T1, HROB-FLAG. Briefly: EMSA; 3 mM EDTA; preferred; EMSA: 25 mM Tris-acetate pH 7.5, 3 mM EDTA (or 4 mM ATP/ATPgS + 1 mM Mg acetate), 1 mM DTT, 0.1 mg/ml BSA, 1 nM DNA (100 ng for M13), 15 min on ice, gels at 4 C; mass photometry: 25 mM HEPES-NaOH pH 7.5, 2 mM Mg acetate, 1 mM ATP, room temperature. The following applies: protein: recombinant, tags: C-terminal FLAG.

B1: PC216 (70 nt ssDNA) (ssDNA)
DNA: GTAAGTGCCGCGGTGCGGGTGCCAGGGCGTGCCCTTGGGCTCCCCGGGCGCGTACTCCACCTCATGCATC
Consider B1, for which the binding result in the series with MCM8 R309D;MBP-MCM9 was “binds”.

B2: X12-3 HJ3 (93 nt ssDNA) (ssDNA)
DNA: GAGATCTATCTGGTGCCTTCTGACAGTGAATGGGTAACGAATCGTAATAGTCTCTAGACAGCATGTCCTAGCAATGTAATCGTCTATGACGTC
Regarding B2, the binding result in the series with HROB-FLAG [1] and with HROB-ΔOB was “binds” throughout.

B3: Holliday junction (PC1253/PC1254/PC1255/PC1256) (structured_DNA)
DNA 1: TGGGTCAACGTGGGCAAAGATGTCCTAGCAATGTAATCGTCTATGACGTT
DNA 2: TGCCGAATTCTACCAGTGCCAGTGATGGACATCTTTGCCCACGTTGACCC
DNA 3: GTCGGATCCTCTAGACAGCTCCATGATCACTGGCACTGGTAGAATTCGGC
DNA 4: CAACGTCATAGACGATTACATTGCTACATGGAGCTGTCTAGAGGATCCGA
Consider B3, for which the binding result with HROB-FLAG [2] (label: 3' 32P-dC on PC1253, four-way junction 1:2 2:3 3:4 4:1) was “binds”.

B4: Y-structure (PC1254/PC1253) (structured_DNA)
DNA 1: B3 DNA 2
DNA 2: B3 DNA 1
As to B4, the binding result in the series with HROB-FLAG [2] (label: 3' 32P-dC on PC1254, fork 1:2) is given as “binds”.
